Data taken from the supplement of paper PMC9170038.

System: MS2 coat protein
Experiment: apparent KD of MS2 coat protein; designed switch direction (-1 OFF switch, 1 ON switch): 1; higher = weaker reporter binding
How it was run: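 Normalised cluster fluorescence was curve-fitted, and each design's median over clusters is its apparent KD. Before this, SNAP-549-labelled MS2 coat protein was titrated from 0.7 or 1.5 nM, doubling to 3 µM, over RNA switches transcribed on Illumina chips by stalled E. coli RNA polymerase. Titrations had no input, 200 uM small-molecule ligand, or an oligonucleotide input, and steps lasted 0.8–1.5 h (lowest) to 10–20 min (highest).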

[1] = input ligand: microRNA oligo, concentration not stated
[2] = Eterna round: R95, input ligand: FMN 200 uM
[3] = Eterna round: R95, input ligand: microRNA oligo, concentration not stated
[4] = Eterna round: R95, input ligand: none

Row | Sequence | apparent KD of MS2 coat protein (input ligand: FMN 200 uM) | apparent KD of MS2 coat protein [1] | apparent KD of MS2 coat protein (input ligand: none) | apparent KD of MS2 coat protein [2] | apparent KD of MS2 coat protein [3] | apparent KD of MS2 coat protein [4]
1 | AUAGUUAGCAAAGGAUAUGGGAAAGGAAGUGUACCAGAAGGUUGGCUACUGGGCUUACAUGAGGAUCACCCAUGUCCCGGUAGC [PowerStrip SSNG 1.30] (Eterna round: R96, puzzle: Same State NG 1) | 14.6 nM | 14.2 nM | 15.4 nM |  |  | 
2 | AUAUGAGAAGCAGGAUAUGUGAAAAAAAAACAUACAGAAGGGUUUAUGGAAAAACAUGAGGAUCACCCAUGUUCUUUGUGAUGA [AK SSNG1-V2-1] (Eterna round: R96, puzzle: Same State NG 1) |  | 29.6 nM |  |  |  | 
3 | AUCAAAACAAGUUGCAGUGUUCGUCUUUCACAUGAGGAUCACCCAUGUAAUAGCCCAGUGGAAGCGCUCGGGCUACC [Esgevexe] (puzzle: Sensor for hsa-mir-208a) |  |  |  | 38.7 nM | 25.6 nM | 47.9 nM
4 | AUCCUACAUGAGGAUCACCCAUGUGACGCCUCAAUAGGAUAUCGGGCCCACAGUCGGGAACGAGAAGGAUUGAAGC [Beatonce] (puzzle: Same State 1) |  |  |  | 70 nM | 170 nM | 669 nM
5 | AUGAAGAAUUAAGGAUAUUGAUUACAUAUGUUUAACAUGAGGAUCACCCAUGUGGGUUGCGGUAUCGAGAAGGUAAAUUACAAG [Mat - same State NG 2 - JL mod - D87] (Eterna round: R96, puzzle: Same State NG 2) | 177 nM | 132 nM | 187 nM |  |  | 
6 | AUGCCCGUAGCACAGGAUAUCCGAGGCAAAACAUGAGGAUCACCCAUGUCAAACGAAAAUCCGAAGGAGAAGGGUGAACGGGCUC [Xeisquorat] (puzzle: Same State 2) |  |  |  | 12 nM | 11.8 nM | 9.59 nM
7 | AUGUGUUUGCGAGGAUAUCGUUUGUUGAAGUUACGAGAAGGCGCUCACUUUACAUGAGGAUCACCCAUGUCUUUGAUGCAUGAU [JR_SSNG1_Sub073] (Eterna round: R96, puzzle: Same State NG 1) | 46.6 nM | 40.2 nM | 44.1 nM |  |  | 
8 | AUUAAACAUGAGGAUCACCCAUGUCAACAAAGUCGAGGAUAUGGGCAAAUAUAAUAAGAACCAGAAGGCGAAUAAU [salish99_ss1_r3_059] (puzzle: Same State 1) |  |  |  | 28 nM | 190 nM | 227 nM
9 | AUUAAACAUGAGGAUCACCCAUGUCAACAAAGUCGAGGAUAUGGGCAUAUUAUCUUAUUUCCAGAAGGCGAAUAAU [salish99_ss1_r3_088] (puzzle: Same State 1) |  |  |  |  | 131 nM | 
10 | AUUACUAACAUAGGAUAUCAUGCGAAAAUUGCGUGAGAAGGGUGGACGCUGUCAUUCACGGAGGACAUGAGGAUCACCCAUGUC [SameState NG1 #72] (Eterna round: R96, puzzle: Same State NG 1) | 264 nM | 103 nM | 143 nM |  |  | 
11 | AUUAUCAAUGCAGGAUAUGAUUAACAUGAGGAUCACCCAUGUGGUGUUGUGAGUAAGGAGAGUGAUCAGAAGGGCAUUUUUUUU [JMF's solution 26] (Eterna round: R96, puzzle: Same State NG 2) | 575 nM | 261 nM | 475 nM |  |  | 
12 | AUUAUUAAUGCAGGAUAUGAUUAACAUGAGGAUCACCCAUGUGGUGUUGUGAGUAAGGAGAGUGAUCAGAAGGGCAUCUUUUUU [JMF's solution 10] (Eterna round: R96, puzzle: Same State NG 2) | 470 nM | 312 nM | 359 nM |  |  | 
13 | AUUAUUAAUGCAGGAUAUGAUUAACAUGAGGAUCACCCAUGUGGUGUUGUGAGUAAGGAGAGUGAUCAGAAGGGCAUUUUUUUA [JMF's solution 18] (Eterna round: R96, puzzle: Same State NG 2) | 653 nM | 440 nM | 479 nM |  |  | 
14 | AUUAUUUAUGCAGGAUAUGAUUAACAUGAGGAUCACCCAUGUGGUGUUGUGAGUAAGGAGAGUGAUCAGAAGGGCAUUAUUUUU [JMF's solution 45] (Eterna round: R96, puzzle: Same State NG 2) | 634 nM | 214 nM | 355 nM |  |  | 
15 | AUUAUUUAUGCAGGAUAUGAUUAACAUGAGGAUCACCCAUGUGGUGUUGUGAGUAAGGAGAGUGAUCAGAAGGGCAUUUUUUUU [JMF's solution 22] (Eterna round: R96, puzzle: Same State NG 2) | 673 nM | 377 nM | 447 nM |  |  | 
16 | AUUGCUUUCGCAGGAUAUGAUGCGAAAAUUGCGUCAGAAGGGUGGAGUCUCUCAUUGCUAGAGGACAUGAGGAUCACCCAUGUC [SameState NG1 #85] (Eterna round: R96, puzzle: Same State NG 1) | 188 nM | 309 nM | 541 nM |  |  | 
17 | CAAUAAUGUGGAGGAUAUGGGAGGUCAACACAUGAGGAUCACCCAUGUAGAUAGUGAGGCCAAGCCUAGAAGGCCACAAUCAGC [Eternabot solution 20] (Eterna round: R96, puzzle: Same State NG 2) | 12.6 nM | 65.5 nM | 95.9 nM |  |  | 
18 | CACCCAAAGGAAGGAUAUAGGGACUCGAGGACAACAUGAGGAUCACCCAUGUCCCGCCAUCGGCCUUAGAAGGUCCAAGGGAAC [Eternabot solution 7] (Eterna round: R96, puzzle: Same State NG 2) | 18.8 nM | 17.1 nM | 21.8 nM |  |  | 
19 | CAGCCACAAAAUACGGCUGAAACAUGAGGAUCACCCAUGUCACAGGAUAUCCAACGGUAUACCGCGGAGAAGGGUGCGAAGAAC [Ceusso] (Eterna round: R96, puzzle: Same State NG 3) | 73.7 nM | 73.8 nM | 52.4 nM |  |  | 
20 | CAGCGCUGUCGAGAGGAUAUGCAGUGAUGGACAUGAGGAUCACCCAUGUUAGCGAUAGCAUUACAGUAGAAGGCUCUACAGCUGC [Soteed - 14] (puzzle: Same State 2) |  |  |  | 13 nM | 16.4 nM | 19.5 nM
21 | CAGCGCUGUCGAGAGGAUAUGCAGUGAUGGACAUGAGGAUCACCCAUGUUAGCGAUAGCAUUACGGUAGAAGGCUCUACAGCUGC [Soteed - 13] (puzzle: Same State 2) |  |  |  |  | 16.4 nM | 
22 | CAGCGCUGUCGAGAGGAUAUGCGGUGAUGGACAUGAGGAUCACCCAUGUUAGCGACAGCAUCACGGCAGAAGGCUCUACCGCUGC [Soteed Omei mod 18] (Eterna round: R96, puzzle: Same State 2) | 19.9 nM | 24.1 nM | 60.7 nM |  |  | 
23 | CAGCGCUGUCGAGAGGAUAUGCGGUGAUGGACAUGAGGAUCACCCAUGUUAGCGACAGCAUCACGGCAGAAGGCUCUACCGCUGC [Soteed Omei mod 18] (puzzle: Same State 2) |  |  |  | 19.3 nM | 18.8 nM | 30.3 nM
24 | CAGCGCUGUCGAGAGGAUAUGCGGUGAUGGACAUGAGGAUCACCCAUGUUAGCGACAGCAUUACGGUAGAAGGCUUCACAGCUGC [Soteed Omei mod 15] (Eterna round: R96, puzzle: Same State 2) | 287 nM | 14.4 nM | 55.7 nM |  |  | 
25 | CAGCGCUGUCGAGAGGAUAUGCGGUGAUGGACAUGAGGAUCACCCAUGUUAGCGACAGCAUUACGGUAGAAGGCUUCACAGCUGC [Soteed Omei mod 15] (puzzle: Same State 2) |  |  |  | 61 nM | 33.3 nM | 41.8 nM
26 | CAUUGGACAUCCAGUGAGACAUGAGGAUCACCCAUGUAGGCGCAGGAUAUGCGGGUUCGGUGCUCGCAGAAGGGUGAAGAAAAC [Veenin] (Eterna round: R96, puzzle: Same State NG 3) | 129 nM | 98.2 nM | 114 nM |  |  | 
27 | CCAGCUUCGGCAGGAUAUGGCGCGCCACUACGCCCAGAAGGGCCGGAAGAUACUACAACCACUACAUGAGGAUCACCCAUGUCA [Eternabot solution 1] (Eterna round: R96, puzzle: Same State NG 1) | 30.7 nM | 5.79 nM | 66.8 nM |  |  | 
28 | CCAGGACAUGAGGAUCACCCAUGUGCUUAAUAUGGAGAAUCUCAGGAUAUCAUGAGGAUCACCCAUGAGAAGGGAGAUCCGAGG (Eterna round: R96, puzzle: Same State NG 3) | 144 nM | 118 nM | 152 nM |  |  | 
